In paper PMC3961392:

Target: APOBEC3G (human), Q9HC16
Assay: SEC; 10-15 µg of purified enzyme (low enzyme concentration) on a 10 mL Superdex 200 column; 50 mM Tris pH 7.5, 200 mM NaCl; masses and oligomerization states from a Bio-Rad gel filtration standard curve
Conditions: remark: other sources report otherwise

B1: APOBEC3G, Q9HC16 1-384 (enzyme)
chain: MKPHFRNTVERMYRDTFSYNFYNRPILSRRNTVWLCYEVKTKGPSRPPLDAKIFRGQVYSELKYHPEMRFFHWFSKWRKLHRDQEYEVTWYISWSPCTKCTRDMATFLAEDPKVTLTIFVARLYYFWDPDYQEALRSLCQKRDGPRATMKIMNYDEFQHCWSKFVYSQRELFEPWNNLPKYYILLHIMLGEILRHSMDPPTFTFNFNNEPWVRGRHETYLCYEVERMHNDTWVLLNQRRGFLCNQAPHKHGFLEGRHAELCFLDVIPFWKLDLDQDYRVTCFTSWSPCFSCAQEMAKFISKNKHVSLCIFTARIYDDQGRCQEGLRTLAEAGAKISIMTYSEFKHCWDTFVDHQGCPFQPWDGLDEHSQDLSGRLRAILQNQEN
With B1 the stoichiometry N was 2.
